Laboratory results as given in PMC12416549 (2024).

T1: TNFR1 (Homo sapiens, UniProt P19438)
T1 chain: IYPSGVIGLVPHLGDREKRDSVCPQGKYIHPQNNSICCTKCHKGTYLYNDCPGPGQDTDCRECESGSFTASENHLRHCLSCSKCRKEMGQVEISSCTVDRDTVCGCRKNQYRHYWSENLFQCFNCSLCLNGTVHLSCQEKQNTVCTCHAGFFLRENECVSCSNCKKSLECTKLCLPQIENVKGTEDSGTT


Biological target: T1, TNFR1
Assay: yeast display SC50

| Binder | apparent Kd (screen) |
| --- | --- |
| A30E (designed binder) SMEEEVEKAAKEYEKKKKEAIEKHLEKLKEKDKEAAERFLKELEEAAKEYAKDEAKTMSEEEAKRRAKKYKEKVLLSELSEEEQKEIKEAEEKLVRTILKYVEEAAK | 0.277 nM |
| E54F (designed binder) SMEEEVEKAAKEYEKKKKEAIEKHLEKLKAKDKEAAERFLKELEEAAKEYAKDFAKTMSEEEAKRRAKKYKEKVLLSELSEEEQKEIKEAEEKLVRTILKYVEEAAK | 0.405 nM |
| E42W (designed binder) SMEEEVEKAAKEYEKKKKEAIEKHLEKLKAKDKEAAERFLKWLEEAAKEYAKDEAKTMSEEEAKRRAKKYKEKVLLSELSEEEQKEIKEAEEKLVRTILKYVEEAAK | 0.49 nM |
| A67S (designed binder) SMEEEVEKAAKEYEKKKKEAIEKHLEKLKAKDKEAAERFLKELEEAAKEYAKDEAKTMSEEEAKRRSKKYKEKVLLSELSEEEQKEIKEAEEKLVRTILKYVEEAAK | 1.54 nM |
| T57D (designed binder) SMEEEVEKAAKEYEKKKKEAIEKHLEKLKAKDKEAAERFLKELEEAAKEYAKDEAKDMSEEEAKRRAKKYKEKVLLSELSEEEQKEIKEAEEKLVRTILKYVEEAAK | 13.8 nM |
| M58H (designed binder) SMEEEVEKAAKEYEKKKKEAIEKHLEKLKAKDKEAAERFLKELEEAAKEYAKDEAKTHSEEEAKRRAKKYKEKVLLSELSEEEQKEIKEAEEKLVRTILKYVEEAAK | 7.78 nM |
| T57F (designed binder) SMEEEVEKAAKEYEKKKKEAIEKHLEKLKAKDKEAAERFLKELEEAAKEYAKDEAKFMSEEEAKRRAKKYKEKVLLSELSEEEQKEIKEAEEKLVRTILKYVEEAAK | 0.0729 nM |
| L43C (designed binder) SMEEEVEKAAKEYEKKKKEAIEKHLEKLKAKDKEAAERFLKECEEAAKEYAKDEAKTMSEEEAKRRAKKYKEKVLLSELSEEEQKEIKEAEEKLVRTILKYVEEAAK | 0.49 nM |
| L79H (designed binder) SMEEEVEKAAKEYEKKKKEAIEKHLEKLKAKDKEAAERFLKELEEAAKEYAKDEAKTMSEEEAKRRAKKYKEKVLLSEHSEEEQKEIKEAEEKLVRTILKYVEEAAK | 13.8 nM |
| K15Q (designed binder) SMEEEVEKAAKEYEQKKKEAIEKHLEKLKAKDKEAAERFLKELEEAAKEYAKDEAKTMSEEEAKRRAKKYKEKVLLSELSEEEQKEIKEAEEKLVRTILKYVEEAAK | 0.956 nM |
| E78A (designed binder) SMEEEVEKAAKEYEKKKKEAIEKHLEKLKAKDKEAAERFLKELEEAAKEYAKDEAKTMSEEEAKRRAKKYKEKVLLSALSEEEQKEIKEAEEKLVRTILKYVEEAAK | 2.48 nM |
| A67T (designed binder) SMEEEVEKAAKEYEKKKKEAIEKHLEKLKAKDKEAAERFLKELEEAAKEYAKDEAKTMSEEEAKRRTKKYKEKVLLSELSEEEQKEIKEAEEKLVRTILKYVEEAAK | 20.2 nM |
| K64E (designed binder) SMEEEVEKAAKEYEKKKKEAIEKHLEKLKAKDKEAAERFLKELEEAAKEYAKDEAKTMSEEEAERRAKKYKEKVLLSELSEEEQKEIKEAEEKLVRTILKYVEEAAK | 0.593 nM |
| Y13I (designed binder) SMEEEVEKAAKEIEKKKKEAIEKHLEKLKAKDKEAAERFLKELEEAAKEYAKDEAKTMSEEEAKRRAKKYKEKVLLSELSEEEQKEIKEAEEKLVRTILKYVEEAAK | 11.4 nM |
| L75E (designed binder) SMEEEVEKAAKEYEKKKKEAIEKHLEKLKAKDKEAAERFLKELEEAAKEYAKDEAKTMSEEEAKRRAKKYKEKVELSELSEEEQKEIKEAEEKLVRTILKYVEEAAK | 2.73 nM |
| K11G (designed binder) SMEEEVEKAAGEYEKKKKEAIEKHLEKLKAKDKEAAERFLKELEEAAKEYAKDEAKTMSEEEAKRRAKKYKEKVLLSELSEEEQKEIKEAEEKLVRTILKYVEEAAK | 0.446 nM |

Results, then the binder that gave them:

| apparent Kd (screen) | Binder |
| --- | --- |
| 0.446 nM | K17Y (designed binder) SMEEEVEKAAKEYEKKYKEAIEKHLEKLKAKDKEAAERFLKELEEAAKEYAKDEAKTMSEEEAKRRAKKYKEKVLLSELSEEEQKEIKEAEEKLVRTILKYVEEAAK |
| 1.4 nM | R96Q (designed binder) SMEEEVEKAAKEYEKKKKEAIEKHLEKLKAKDKEAAERFLKELEEAAKEYAKDEAKTMSEEEAKRRAKKYKEKVLLSELSEEEQKEIKEAEEKLVQTILKYVEEAAK |
| 1.4 nM | R65V (designed binder) SMEEEVEKAAKEYEKKKKEAIEKHLEKLKAKDKEAAERFLKELEEAAKEYAKDEAKTMSEEEAKVRAKKYKEKVLLSELSEEEQKEIKEAEEKLVRTILKYVEEAAK |
| 3 nM | K68C (designed binder) SMEEEVEKAAKEYEKKKKEAIEKHLEKLKAKDKEAAERFLKELEEAAKEYAKDEAKTMSEEEAKRRACKYKEKVLLSELSEEEQKEIKEAEEKLVRTILKYVEEAAK |
| 0.49 nM | E60I (designed binder) SMEEEVEKAAKEYEKKKKEAIEKHLEKLKAKDKEAAERFLKELEEAAKEYAKDEAKTMSIEEAKRRAKKYKEKVLLSELSEEEQKEIKEAEEKLVRTILKYVEEAAK |
| 0.446 nM | E44C (designed binder) SMEEEVEKAAKEYEKKKKEAIEKHLEKLKAKDKEAAERFLKELCEAAKEYAKDEAKTMSEEEAKRRAKKYKEKVLLSELSEEEQKEIKEAEEKLVRTILKYVEEAAK |
| 5.84 nM | E14I (designed binder) SMEEEVEKAAKEYIKKKKEAIEKHLEKLKAKDKEAAERFLKELEEAAKEYAKDEAKTMSEEEAKRRAKKYKEKVLLSELSEEEQKEIKEAEEKLVRTILKYVEEAAK |
| 6.43 nM | A55K (designed binder) SMEEEVEKAAKEYEKKKKEAIEKHLEKLKAKDKEAAERFLKELEEAAKEYAKDEKKTMSEEEAKRRAKKYKEKVLLSELSEEEQKEIKEAEEKLVRTILKYVEEAAK |
| 0.718 nM | A9F (designed binder) SMEEEVEKFAKEYEKKKKEAIEKHLEKLKAKDKEAAERFLKELEEAAKEYAKDEAKTMSEEEAKRRAKKYKEKVLLSELSEEEQKEIKEAEEKLVRTILKYVEEAAK |
| 0.539 nM | K16D (designed binder) SMEEEVEKAAKEYEKDKKEAIEKHLEKLKAKDKEAAERFLKELEEAAKEYAKDEAKTMSEEEAKRRAKKYKEKVLLSELSEEEQKEIKEAEEKLVRTILKYVEEAAK |
| 0.446 nM | K16F (designed binder) SMEEEVEKAAKEYEKFKKEAIEKHLEKLKAKDKEAAERFLKELEEAAKEYAKDEAKTMSEEEAKRRAKKYKEKVLLSELSEEEQKEIKEAEEKLVRTILKYVEEAAK |
| 8.56 nM | R66W (designed binder) SMEEEVEKAAKEYEKKKKEAIEKHLEKLKAKDKEAAERFLKELEEAAKEYAKDEAKTMSEEEAKRWAKKYKEKVLLSELSEEEQKEIKEAEEKLVRTILKYVEEAAK |
| 1.54 nM | K29I (designed binder) SMEEEVEKAAKEYEKKKKEAIEKHLEKLIAKDKEAAERFLKELEEAAKEYAKDEAKTMSEEEAKRRAKKYKEKVLLSELSEEEQKEIKEAEEKLVRTILKYVEEAAK |
| 1.27 nM | D53A (designed binder) SMEEEVEKAAKEYEKKKKEAIEKHLEKLKAKDKEAAERFLKELEEAAKEYAKAEAKTMSEEEAKRRAKKYKEKVLLSELSEEEQKEIKEAEEKLVRTILKYVEEAAK |
| 3.63 nM | Q84D (designed binder) SMEEEVEKAAKEYEKKKKEAIEKHLEKLKAKDKEAAERFLKELEEAAKEYAKDEAKTMSEEEAKRRAKKYKEKVLLSELSEEEDKEIKEAEEKLVRTILKYVEEAAK |
| 1.16 nM | E4Y (designed binder) SMEYEVEKAAKEYEKKKKEAIEKHLEKLKAKDKEAAERFLKELEEAAKEYAKDEAKTMSEEEAKRRAKKYKEKVLLSELSEEEQKEIKEAEEKLVRTILKYVEEAAK |
| 0.49 nM | K23D (designed binder) SMEEEVEKAAKEYEKKKKEAIEDHLEKLKAKDKEAAERFLKELEEAAKEYAKDEAKTMSEEEAKRRAKKYKEKVLLSELSEEEQKEIKEAEEKLVRTILKYVEEAAK |
